The values that follow come from patent publication US20240191188A1.

For the assay, the target named is CD28 on the surface of T cells and PBMCs (human) (UniProt P10747). Put plainly: flow cytometry of live CD3+ cells of the CD28 positive fraction after D-biotin and washing; remaining anti-CD28 Fab monomers were detected with an antibody against the Ig kappa light chain. The same antibody on cells before selection (negative control, no Fab) gives 2.73. Background: In flow cytometry, cells or beads pass a laser one at a time.

For “αCD28 Fab fragment derived from the monoclonal anti-human CD28 antibody CD28.3, heavy chain carboxy-terminally fused to the Twin-Strep-tag (monomeric)”, the % of cells within gate came to 5.91%.
